Target: RFP-fused mouse full length COMP expressed in RCS cells (pDsRed1-N1-COMP) (mouse) (UniProt Q9R0G6)
Test: cell-based or functional assay

Sequence of UniProt Q9R0G6 (Q9R0G6 20-755): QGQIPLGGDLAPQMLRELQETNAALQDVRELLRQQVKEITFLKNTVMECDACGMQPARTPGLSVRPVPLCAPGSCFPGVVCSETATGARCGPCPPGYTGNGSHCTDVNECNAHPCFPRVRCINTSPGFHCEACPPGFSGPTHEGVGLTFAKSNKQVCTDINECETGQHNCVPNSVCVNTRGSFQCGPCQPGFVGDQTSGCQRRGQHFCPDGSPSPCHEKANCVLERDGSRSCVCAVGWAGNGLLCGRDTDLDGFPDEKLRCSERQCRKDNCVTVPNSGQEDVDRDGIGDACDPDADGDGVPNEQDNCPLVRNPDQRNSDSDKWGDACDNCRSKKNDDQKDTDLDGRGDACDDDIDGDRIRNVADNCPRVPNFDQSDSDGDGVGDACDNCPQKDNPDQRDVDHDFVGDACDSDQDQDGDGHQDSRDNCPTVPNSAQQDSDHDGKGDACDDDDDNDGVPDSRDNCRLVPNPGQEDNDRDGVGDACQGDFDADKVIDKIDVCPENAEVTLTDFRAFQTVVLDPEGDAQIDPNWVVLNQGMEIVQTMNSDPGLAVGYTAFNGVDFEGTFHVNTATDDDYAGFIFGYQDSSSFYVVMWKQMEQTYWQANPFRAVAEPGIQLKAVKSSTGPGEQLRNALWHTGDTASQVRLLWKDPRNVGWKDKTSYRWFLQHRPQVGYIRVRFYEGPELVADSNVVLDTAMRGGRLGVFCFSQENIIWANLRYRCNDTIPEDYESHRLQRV

GFP-linked GEP expressed in RCS cells (pEGFP-GEP) (ligand)
enhancement of GEP-mediated stimulation of RCS cell proliferation by coexpression of COMP, day 2 (viable cell count): 2.3 fold
enhancement of GEP-mediated stimulation of RCS cell proliferation by coexpression of COMP, day 3 (viable cell count): 2.1 fold
enhancement of GEP-mediated stimulation of RCS cell proliferation by coexpression of COMP, day 4 (viable cell count): 1.7 fold
enhancement of GEP-mediated stimulation of RCS cell proliferation by coexpression of COMP, day 5 (viable cell count): 1.5 fold
